Results as given in patent publication US9850300B2, “Compositions and methods relating to inhibiting cancer cell growth and/or proliferation” (The Regents of the University of Michigan, priority 2013, dated 2017).
“Also recorded” adds a separate entry of the source.

Assays:
[1] = tested on: primary ALDH+ and ALDH(−) cells; test: Single cell microfluidic culture, cell division type; assay type: cell-based, human
Source text: For primary cells, it was observed that over 50% of untreated ALDH^(−) cells underwent no division over 5 days, while remaining cells underwent symmetric division. […] 20% of ALDH^+ cells underwent no division. EGFL6 treatment of primary ALDH^+ cells was associated with a 1.9-fold increase in the number of ALDH^+ cells undergoing asymmetric division (FIG. 3Dii). EGFL6 treatment was associated with an increase in total cell numbers (90 EGFL6 treated cells yielded 585 total cells while 82 mock-treated cells yielded 451 cells).
Informed consent was obtained from all patients before tissue procurement. All studies were performed with the approval of the Institutional Review Board of the University of Michigan. All tumors were stage III or IV epithelial ovarian or primary peritoneal cancer. Tumors were mechanically dissected into single-cell suspensions and isolated on a ficoll gradient as previously described (see, e.g., Pulaski, H. L., et al. J Transl Med 7, 49 (2009)). For ascites, cell pellets were collected by centrifugation; red cells were lysed using ACK buffer (Lonza, Hopkinton, Mass.), washed, passed through a 40-μm filter, then passed 4 times through a Standard Hub Pipetting needle to isolate single cells (see, e.g., Silva, I. A., et al. Cancer Res (2011)).

[2] = tested on: ALDH+ CSCs in SKOV3 cells; test: ALDH+ cell percentage and number (ALDEFLUOR FACS); assay type: cell-based
Source text: (§1) It has been shown that aldehyde dehydrogenase enzymatic activity (ALDH) is an excellent marker of ovarian CSCs in SKOV3 cells and primary patient samples (see, e.g., Silva, I. A., et al. Cancer Res (2011); Landen, C. N., Jr., et al. Mol Cancer Ther 9, 3186-3199 (2010); Steg, A. D., et al. Clin Cancer Res 18, 869-881 (2012); Kryczek, I., et al. Int J Cancer 130, 29-39 (2012); Deng, S., et al. PLoS ONE 5, e10277 (2010)). The impact of EGFL6 treatment on the percentage of ALDH^+ CSCs in vitro was next assessed. […] However, given the increase in total cell numbers, the absolute ALDH^+ CSC number remained unchanged (FIG. 3Aiii). […] Human ovarian cancer ascites cells were also treated with EGFL6 in a tumor sphere assay. Once again, treatment with EGLF6 was associated with a reduction in ALDH^+ cell percentages in tumor spheres (FIG. 3B).
(§2) SKOV3, A2008, and A2780 were maintained in RPMI-1640, supplemented with 10% FBS with 1% Penicillin/Streptomycin, and cultured in humidified atmosphere of 5% CO2 at 37° C. For all in vitro cell culture experiments, isolated cells were allow to recover overnight following FACS, prior to treatment. Infantile Hemangioma Stem cells were maintained in EBM-2 medium with growth factor supplement cocktails in culture plates coated with fibronectin. For Echistatin and EGFL6 treatment, cells were pretreated with Echistatin (Sigma, 100 nM) for 24 hours prior to EGFL6 treatment. All transfections were performed using FuGene6 reagent (Promega) per company protocol.
FACS assay was performed as previously described (see, e.g., Silva, I. A., et al. Cancer Res (2011)). Briefly, SKOV3 cells or primary ovarian tumor/ascetics cells were stained for ALDH using ALDEFLUOR kit per company protocol (Stem Cell Technologies). DAPI staining was used to exclude non-viable cells. For FACS cell sorting, equal number of ALDH and ALDH^(−) cells were collected for subsequent experiments.
EGFL6 monoclonal antibody producing hybridoma cells were maintained in RPMI medium supplemented with 10% FBS. For antibody purification, the cells were cultured in reduced FBS (5%). […]

SKOV3 cells = test: Cell cycle analysis (propidium iodine, FACS); assay type: cell-based; details: EGFL6 treatment 24 hrs after serum starvation
Procedure: SKOV3 cells were seeded at 5×10^5 in 6 cm culture plates, synchronized by serum starvation for 24 hrs, then treated with EGFL6 or control for 24 hrs. Cells were fixed with ice-cold alcohol, washed with PBS, and stained with propidium iodine ([…]) and RNase A (100 ug/ml) in PBS for 1 hr at 30° C. Cell cycle profile was acquired by FACS analysis and data were analyzed by Flowjo.

[3] = tested on: phosphorylation of SHP2, ERK, FAK and SRC in SKOV3 cells; test: Western blot of EGFL6 mediated signal activation; assay type: cell-based
Procedure: Lastly, EGFL6 mediated signal activation was evaluated. Integrin signaling has been reported to induce the […] of FAK, SRC and SHP2 among others. […] Phosphorylation of all of these proteins could be blocked with Echistatin.
Cellular signaling changes associated with EGFL6 was next examined. […] EGFL6 treatment was associated with increased p-SHP2 levels specifically in ALDH^+ cells (FIG. 4Ei). […] SHP2 phosphorylation could be blocked with Echistatin (FIG. 4Eiii) or an EGFL6-blocking antibody. SHP2 phosphorylation was associated with increased p-ERK levels (4Ei-iii).
as §2
EGFL6 monoclonal antibody producing hybridoma cells were maintained in RPMI medium supplemented with 10% FBS. For antibody purification, the cells were cultured in reduced FBS (5%). Culture supernatant was collected and cell debris was removed by centrifugation. EGFL6 antibody was pulled down using Protein G Agarose heeds, Fast Flow (Millipore), washed and eluded with 50 mM glycine PH.2.7. Antibody solution was immediately neutralized to PH 7.2-7.4 with Tris (Ph 9.0, final concentration 25 mM). NaCl was added to final concentration of 150 mM. EGFL6 antibody was applied at 5 μg/ml for in vitro cell treatment and 50 μg/mouse for in vivo treatment.

[4] = tested on: Human ovarian cancer ascites cells; test: Tumor sphere assay, ALDH+ cell percentages; assay type: cell-based; details: EGFL6 treatment
Source text: as §1
Sphere culture was performed as previously described (see, e.g., Silva, I. A., et al. Cancer Res (2011)). Briefly, single cell suspensions were plated in triplicate in ultra-low attachment plates (Corning, Acton, Mass., USA) in serum-free MEBM-2 (Lonza). Cells were plated at the indicated density and from 1,000-10,000 cells/ml in subsequent passage. Sphere formation was assessed 2 weeks after seeding cells.

cellular migration = test: In vitro scratch test wound healing assay; assay type: cell-based; details: EGFL6 treated cells
ALDH+ and ALDH− cells = test: Microfluidics device migration of individual cells in an EGFL6 gradient; assay type: cell-based
Source text: EGF factors have been reported to enhance the migration and invasion of various cell populations. The impact of EGFL6 on cellular migration was therefore assessed. […] Finally, a novel microfluidics device was used to determine the impact of EGFL6 on the migration of individual cells. To more specifically assess the impact on ovarian CSC versus progenitors, ALDH+ and ALDH− cells were sorted and loaded into individual channels of a microfluidics device in which migration could be directly monitored. EGFL6 was added to a reservoir at one side of the device to create a gradient of expression. EGFL6 had no impact on the migration of ALDH(−) cells.

B1: EGFL6: recombinant EGFL6-flag protein from transfected HEK293 cells, used purified or as 72 hr supernatant (protein)
chain: NAASARHHGLLASARQPGVCHYGTKLACCYGWRRNSKGVCEATCEPGCKFGECVGPNKCRCFPGYTGKTCSQDVNECGMKPRPCQHRCVNTHGSYKCFCLSGHMLMPDATCVNSRTCAMINCQYSCEDTEEGPQCLCPSSGLRLAPNGRDCLDIDECASGKVICPYNRRCVNTFGSYYCKCHIGFELQYISGRYDCIDINECTMDSHTCSHHANCFNTQGSFKCKCKQGYKGNGLRCSAIPENSVKEVLRAPGTIKDRIKKLLAHKNSMKKKAKIKNVTPEPTRTPTPKVNLQPFNYEEIVSRGGNSHGGKKGNEEKMKEGLEDEKREEKALKNDIEERSLRGDVFFPKVNEAGEFGLILVQRKALTSKLEHKDLNISVDCSFNHGICDWKQDREDDFDWNPADRDNAIGFYMAVPALAGHKKDIGRLKLLLPDLQPQSNFCLLFDYRLAGDKVGKLRVFVKNSNNALAWEKTTSEDEKWKTGKIQLYQGTDATKSIIFEAERGKGKTGEIAVDGVLLVSGLCPDSLLSVDD
[1]; from 90 EGFL6 treated primary cells
  total cells yielded: 585 total cells
[1]; primary ALDH(−) cells, 5 days
  symmetric divisions of ALDH(−) cells: non-statistically significant increase
[1]; primary ALDH+ cells
  increase in the number of ALDH+ cells undergoing asymmetric division: 1.9 fold
[2]; EGFL6 treatment
  percentages of ALDH+ CSCs: decreasing percentages; also recorded: reduced
[2]; increasing concentrations of EGFL6
  absolute ALDH+ CSC number: unchanged
SKOV3 cells
  decrease in the number of cells in G1 phase: ~20%
  number of cells in S and G2/M phases: concomitant increase
[3]; EGFL6 treated SKOV3 cells
  p-FAK levels: modest increase
  p-SRC levels: modest increase
[3]; treatment of ALDH+ SKOV3 cells
  p-SHP2 levels: further increase; also recorded: increased
[3]; treatment of ALDH+ and ALDH(−) cells
  p-ERK levels: increase p-ERK
[4]
  ALDH+ cell percentages in tumor spheres: reduction
Cellular migration
  increase in the rate of wound closure: 40%
ALDH+ and ALDH− cells
  migration of ALDH(−) cells: no impact
  migration of ALDH+ cells: robust migration
